Measured values: US20260193348A1 (ANTENGENE BIOLOGICS, published 2026)

Columns and labels:
[1] = molecular target: T1, CD3 on T cells / Jurkat cells (human, UniProt P07766 23-207; P04234 22-171; P09693 23-182); assay: FACS on CD3+ T cells isolated from normal donors
T1 construct: whole, on cells; Native CD3 complex on CD3+ T cells isolated from normal donors or on Jurkat cells; also called human CD3; CD3+ T cells

[2] = molecular target: T2, GPRC5D on multiple myeloma cells (human, UniProt Q9NZD1 1-345); assay: FACS on MM.1S cells
T2 construct: whole, on cells; Endogenous GPRC5D on multiple myeloma cell lines; also called G-protein coupled receptor family C group 5 member D; MM.1S, MOLP-8, L363, RPMI8226 cells
T2 sequence (Q9NZD1 whole entry): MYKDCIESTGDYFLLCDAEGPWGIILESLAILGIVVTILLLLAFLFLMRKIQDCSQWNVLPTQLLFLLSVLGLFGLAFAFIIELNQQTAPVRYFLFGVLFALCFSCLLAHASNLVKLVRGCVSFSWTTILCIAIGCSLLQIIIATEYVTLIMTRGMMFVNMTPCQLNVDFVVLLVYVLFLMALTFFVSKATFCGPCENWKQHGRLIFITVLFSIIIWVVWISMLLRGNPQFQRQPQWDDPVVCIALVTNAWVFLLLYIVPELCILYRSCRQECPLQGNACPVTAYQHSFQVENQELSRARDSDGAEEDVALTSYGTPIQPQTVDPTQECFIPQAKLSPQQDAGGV

[3] = molecular target: T2, GPRC5D on multiple myeloma cells; assay: FACS on multiple myeloma cell lines
[4] = molecular target: T1, CD3 on T cells / Jurkat cells; assay: FACS on Jurkat cells
[5] = molecular target: T3, CD19 on NALM6 cells, Raji cells and primary B cells (human, UniProt P15391 20-556); assay: FACS on Raji cells expressing CD19 (FIG. 45C)
T3 construct: whole, on cells; Endogenous CD19 on human cell lines / donor B cells; also called NALM6 cells expressing CD19; Raji cells expressing CD19
T3 sequence (looked up): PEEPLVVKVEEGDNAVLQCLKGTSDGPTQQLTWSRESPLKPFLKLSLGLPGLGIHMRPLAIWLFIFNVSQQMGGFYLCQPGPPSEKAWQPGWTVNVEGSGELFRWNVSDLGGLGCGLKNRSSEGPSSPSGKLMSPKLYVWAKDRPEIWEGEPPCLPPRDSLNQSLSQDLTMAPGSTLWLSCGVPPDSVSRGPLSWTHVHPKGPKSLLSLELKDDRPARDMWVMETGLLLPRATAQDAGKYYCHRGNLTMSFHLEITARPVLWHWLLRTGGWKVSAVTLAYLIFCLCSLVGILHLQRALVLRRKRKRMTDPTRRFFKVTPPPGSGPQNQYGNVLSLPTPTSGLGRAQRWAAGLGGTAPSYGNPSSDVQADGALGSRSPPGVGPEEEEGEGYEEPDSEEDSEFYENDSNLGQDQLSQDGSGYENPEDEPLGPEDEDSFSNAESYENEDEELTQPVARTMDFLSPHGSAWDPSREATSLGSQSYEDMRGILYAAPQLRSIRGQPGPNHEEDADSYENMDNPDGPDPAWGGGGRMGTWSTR
Procedure: (§1) To evaluate the binding affinity of the generated bispecific antibodies to NALM6 cells, Raji cells, Primary B cells, DoHH2 cells, SU-DHL-1 cells and Jurkat cells, the NALM6 cells expressing CD19, Raji cells expressing CD19, Primary B cells, DoHH2 cells expressing CD20, SU-DHL-1 cells without expressing CD19 or CD20 and Jurkat cells expressing CD3 were stained by the test antibodies and the binding affinity was determined by FACS analysis. Primary B cells were isolated from healthy donors' PBMC by human B cell enrichment Kit (Stemcell #19054). The protocol of FACS analysis is described as follows: [0933] (a) The cells from each cell line above were harvested and centrifuged at 300 g for 5 min, and the supernatant were discarded. […] (b) The cells were washed 2 times with FACS buffer. [0935] (c) Step (a) was repeated. [0936] […] [0937] (e) Step (b) was repeated and the cells were resuspended with 100 μl/well diluted secondary antibody, and incubated at 4° C. for 45 minutes in the dark. [0938] (f) Step (b) was repeated and the cells were resuspended the cells with 150 μl/well FACS buffer and kept in dark for FACS analysis.

[6] = molecular target: T3, CD19 on NALM6 cells, Raji cells and …; assay: FACS on NALM6 cells expressing CD19, another experiment (FIG. 45B)
Procedure: as §1

[7] = molecular target: T1, CD3 on T cells / Jurkat cells; assay: FACS on Jurkat cells expressing CD3
[8] = molecular target: T3, CD19 on NALM6 cells, Raji cells and …; assay: FACS on primary B cells from healthy donors' PBMC (FIG. 45D)
Procedure: as §1

T1 sequence (P07766 23-207, chain 1 of 3): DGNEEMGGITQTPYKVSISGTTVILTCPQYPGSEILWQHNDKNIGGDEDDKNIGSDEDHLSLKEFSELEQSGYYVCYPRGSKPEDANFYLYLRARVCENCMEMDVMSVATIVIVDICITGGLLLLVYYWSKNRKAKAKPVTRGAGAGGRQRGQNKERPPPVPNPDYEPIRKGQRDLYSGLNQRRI
T1 sequence (P04234 22-171, chain 2 of 3): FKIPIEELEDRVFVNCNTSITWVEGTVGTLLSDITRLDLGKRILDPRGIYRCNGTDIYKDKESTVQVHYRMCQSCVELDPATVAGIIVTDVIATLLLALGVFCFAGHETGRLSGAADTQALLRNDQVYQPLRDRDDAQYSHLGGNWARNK
T1 sequence (P09693 23-182, chain 3 of 3): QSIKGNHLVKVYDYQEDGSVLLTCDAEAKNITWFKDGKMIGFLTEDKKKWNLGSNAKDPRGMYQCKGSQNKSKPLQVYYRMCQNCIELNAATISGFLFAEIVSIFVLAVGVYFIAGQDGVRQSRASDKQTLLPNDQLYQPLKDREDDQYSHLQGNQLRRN

B1: ATG-Bis-40E9 (bispecific antibody)
VH: EVQLQQSGPELVKPGASVKMSCKASGYTFTSYVIHWVKQKTGQGLEWIGYFNPYNDGTKYNEEFKGKATLTSDKSSNTAYMELNSLTSDDSAVYFCARGGVRRYFDVWGAGTTVTVSS
VL: DIQMTQSPSSLSASLGERVSLTCRASQDIGSNLNWLQQEPDGTIKRLIYATFGLDSGVPKRFSGSRSGSDYSLTISSLESEDFVDYYCQQYASFPYTFGGGTKLEIK
scFv: EVQLQLSGPELVKPGASVKMSCKASGYTFSSYVIHWVKQKPGQGLEWIGYINPYNDVIKYNEKFKGKATLTSDKSSSTAYMELSSLTSEDSAVYYCARDSYYSYDGFAYWGQGTLVTVSAGGGGSGGGGSGGGGSGGGGSQIVLTQSPAIMSASPGEKVTMTCSASSSVSYMHWYQQKSGTSPKRWIYDTSKLASGVPARFSGSGSGTSYSLTISSMEAEDAATYYCQQWSSNPPTFGGGTKVEIK
notes: L234A/L235A; also called chimeric 2+1 bispecific antibody; parental antibody
binding result [1]: binds
binding result [2]: binds

B2: Bis-GD2-Fab2-scFv (bispecific antibody)
VH: QVQLVESGPGVVQPGRSLRISCAVSGFSVTNYGVHWVRQPPGKGLEWLGVIWAGGITNYNSAFMSRLTISKDNSKNTVYLQMNSLRAEDTAMYYCASRGGHYGYALDYWGQGTLVTVSS
VL: EIVMTQTPATLSVSAGERVTITCKASQSVSNDVTWYQQKPGQAPRLLIYSASNRYSGVPARFSGSGYGTEFTFTISSVQSEDFAVYFCQQDYSSFGQGTKLEIK
scFv: EVQLQLSGPELVKPGASVKMSCKASGYTFSSYVIHWVKQKPGQGLEWIGYINPYNDVIKYNEKFKGKATLTSDKSSSTAYMELSSLTSEDSAVYYCARDSYYSYDGFAYWGQGTLVTVSAGGGGSGGGGSGGGGSGGGGSQIVLTQSPAIMSASPGEKVTMTCSASSSVSYMHWYQQKSGTSPKRWIYDTSKLASGVPARFSGSGSGTSYSLTISSMEAEDAATYYCQQWSSNPPTFGGGTKVEIK
notes: Two anti-GD2 Fabs (humanized 3F8) and one anti-CD3 scFv (40-C12-C10-E9) joined by (GGGGS)2 linkers to CH1 of one Fab and to CH2; L234A/L235A; also called Fab-scFv-Fab GD2xCD3 bispecific antibody
binding result [1]: binds

B3: Bis-40E9-L2H3-Y101F.H (bispecific antibody)
VH: EVQLVQSGAEVKKPGASVKVSCKASGYTFTSYVIHWVRQAPGQGLEWMGYFNPYNDGTKYNEEFKGRVTLTSDKSTSTAYMELRSLRSDDTAVYYCARGGVRRYFDVWGQGTTVTVSS
VL: DIQMTQSPSSLSASVGDRVTITCRASQDIGSNLNWLQQKPGKAIKRLIYATFGLDSGVPSRFSGSRSGTDFTLTISSLQPEDFATYYCQQYASFPYTFGGGTKVEIK
scFv: EVQLVQSGAEVKKPGSSVKVSCKASGYTFSSYVIHWVRQAPGQCLEWMGYINPYNDVIKYNEKFKGRVTLTSDKSTSTAYMELSSLRSEDTAVYYCARDSFYSYDGFAYWGQGTLVTVSSGGGGSGGGGSGGGGSGGGGSEIVLTQSPDFQSVTPKEKVTITCSASSSVSYMHWYQQKPDQSPKRLIYDTSKLASGVPSRFSGSGSGTDFTLTINSLEAEDAATYYCQQWSSNPPTFGCGTKVEIK
notes: L234A/L235A
binding result [3]: binds
binding result [4]: binds

B4: Bis-40E9-L2H3-Y54G.H (bispecific antibody)
VH: EVQLVQSGAEVKKPGASVKVSCKASGYTFTSYVIHWVRQAPGQGLEWMGYFNPYNDGTKYNEEFKGRVTLTSDKSTSTAYMELRSLRSDDTAVYYCARGGVRRYFDVWGQGTTVTVSS
VL: DIQMTQSPSSLSASVGDRVTITCRASQDIGSNLNWLQQKPGKAIKRLIYATFGLDSGVPSRFSGSRSGTDFTLTISSLQPEDFATYYCQQYASFPYTFGGGTKVEIK
scFv: EVQLVQSGAEVKKPGSSVKVSCKASGYTFSSYVIHWVRQAPGQCLEWMGYINPGNDVIKYNEKFKGRVTLTSDKSTSTAYMELSSLRSEDTAVYYCARDSYYSYDGFAYWGQGTLVTVSSGGGGSGGGGSGGGGSGGGGSEIVLTQSPDFQSVTPKEKVTITCSASSSVSYMHWYQQKPDQSPKRLIYDTSKLASGVPSRFSGSGSGTDFTLTINSLEAEDAATYYCQQWSSNPPTFGCGTKVEIK
notes: L234A/L235A
binding result [3]: binds
binding result [4]: binds

B5: Bis-GD2-Fab3 (bispecific antibody, V domains shown)
VH 1: QVQLVESGPGVVQPGRSLRISCAVSGFSVTNYGVHWVRQPPGKGLEWLGVIWAGGITNYNSAFMSRLTISKDNSKNTVYLQMNSLRAEDTAMYYCASRGGHYGYALDYWGQGTLVTVSS
VL 1: EIVMTQTPATLSVSAGERVTITCKASQSVSNDVTWYQQKPGQAPRLLIYSASNRYSGVPARFSGSGYGTEFTFTISSVQSEDFAVYFCQQDYSSFGQGTKLEIK
VH 2: EVQLQLSGPELVKPGASVKMSCKASGYTFSSYVIHWVKQKPGQGLEWIGYINPYNDVIKYNEKFKGKATLTSDKSSSTAYMELSSLTSEDSAVYYCARDSYYSYDGFAYWGQGTLVTVSA
VL 2: QIVLTQSPAIMSASPGEKVTMTCSASSSVSYMHWYQQKSGTSPKRWIYDTSKLASGVPARFSGSGSGTSYSLTISSMEAEDAATYYCQQWSSNPPTFGGGTKVEIK
notes: Fab3 format of WO2019154890A1: two anti-GD2 Fabs (humanized 3F8) and one anti-CD3 Fab (40-C12-C10-E9); also called Fab3 GD2xCD3 bispecific antibody
binding result [1]: binds

B6: ATG201-N55S-19B (bispecific antibody, human IgG1, kappa, L234A L235A)
heavy 1: not shown
heavy 2: QVQLQQSGAELVRPGSSVKISCKASGYAFSSYWMNWVKQRPGQGLEWIGQIWPGDGDTNYNGKFKGKATLTADESSSTAYMQLSSLASEDSAVYFCARRETTTVGRYYYAMDYWGQGTTVTVSSASTKGPSVFPLAPSSKSTSGGTAALGCLVKDYFPEPVTVSWNSGALTSGVHTFPAVLQSSGLYSLSSVVTVPSSSLGTQTYICNVNHKPSNTKVDKKVEPKSCGGGGSGGGGSEVQLVQSGAEVKKPGSSVKVSCKASGYTFSSYVIHWVRQAPGQCLEWMGYINPYSDVIKYNEKFKGRVTLTSDKSTSTAYMELSSLRSEDTAVYYCARDSYYSYDGFAYWGQGTLVTVSSGGGGSGGGGSGGGGSGGGGSEIVLTQSPDFQSVTPKEKVTITCSASSSVSYMHWYQQKPDQSPKRLIYDTSKLASGVPSRFSGSGSGTDFTLTINSLEAEDAATYYCQQWSSNPPTFGCGTKVEIKGGGGSGGGGSDKTHTCPPCPAPEAAGGPSVFLFPPKPKDTLMISRTPEVTCVVVDVSHEDPEVKFNWYVDGVEVHNAKTKPREEQYNSTYRVVSVLTVLHQDWLNGKEYKCKVSNKALPAPIEKTISKAKGQPREPQVCTLPPSREEMTKNQVSLSCAVKGFYPSDIAVEWESNGQPENNYKTTPPVLDSDGSFFLVSKLTVDKSRWQQGNVFSCSVMHEALHNHYTQKSLSLSPGK
light: not shown
notes: CD19xCD3 Fab-scFv-Fab: two C19B Fabs, anti-CD3 scFv 40E9-L2H3-N55S.H; L234A/L235A
EC50 [5]: 1.11 nM
EC50 [6]: 0.513 nM
binding result [7]: binds
EC50 [8]: 0.442 nM

B7: ATG201-Y101F-19B (bispecific antibody, human IgG1, kappa, L234A L235A)
heavy 1: not shown
heavy 2: QVQLQQSGAELVRPGSSVKISCKASGYAFSSYWMNWVKQRPGQGLEWIGQIWPGDGDTNYNGKFKGKATLTADESSSTAYMQLSSLASEDSAVYFCARRETTTVGRYYYAMDYWGQGTTVTVSSASTKGPSVFPLAPSSKSTSGGTAALGCLVKDYFPEPVTVSWNSGALTSGVHTFPAVLQSSGLYSLSSVVTVPSSSLGTQTYICNVNHKPSNTKVDKKVEPKSCGGGGSGGGGSEVQLVQSGAEVKKPGSSVKVSCKASGYTFSSYVIHWVRQAPGQCLEWMGYINPYNDVIKYNEKFKGRVTLTSDKSTSTAYMELSSLRSEDTAVYYCARDSFYSYDGFAYWGQGTLVTVSSGGGGSGGGGSGGGGSGGGGSEIVLTQSPDFQSVTPKEKVTITCSASSSVSYMHWYQQKPDQSPKRLIYDTSKLASGVPSRFSGSGSGTDFTLTINSLEAEDAATYYCQQWSSNPPTFGCGTKVEIKGGGGSGGGGSDKTHTCPPCPAPEAAGGPSVFLFPPKPKDTLMISRTPEVTCVVVDVSHEDPEVKFNWYVDGVEVHNAKTKPREEQYNSTYRVVSVLTVLHQDWLNGKEYKCKVSNKALPAPIEKTISKAKGQPREPQVCTLPPSREEMTKNQVSLSCAVKGFYPSDIAVEWESNGQPENNYKTTPPVLDSDGSFFLVSKLTVDKSRWQQGNVFSCSVMHEALHNHYTQKSLSLSPGK
light: not shown
notes: CD19xCD3 Fab-scFv-Fab: two C19B Fabs, anti-CD3 scFv 40E9-L2H3-Y101F.H; L234A/L235A
EC50 [5]: 1.11 nM
EC50 [6]: 0.508 nM
binding result [7]: binds
EC50 [8]: 0.359 nM
